These results are taken from US20190338009A1 (ZEALAND PHARMA A S, published 2019).

Square brackets hold non-standard residues; d marks the D form. Aib = CC(C)(N)C(=O)O

The target of assay [1] is human glucagon-like peptide 1 receptor (GLP-1R) (human, UniProt P43220 24-463). The experiment in a line: cell-based or functional assay.
The target of assay [2] is T1, human GLP-2 receptor (hGLP2-R) (human, UniProt O95838 1-553).
T1 sequence (looked up): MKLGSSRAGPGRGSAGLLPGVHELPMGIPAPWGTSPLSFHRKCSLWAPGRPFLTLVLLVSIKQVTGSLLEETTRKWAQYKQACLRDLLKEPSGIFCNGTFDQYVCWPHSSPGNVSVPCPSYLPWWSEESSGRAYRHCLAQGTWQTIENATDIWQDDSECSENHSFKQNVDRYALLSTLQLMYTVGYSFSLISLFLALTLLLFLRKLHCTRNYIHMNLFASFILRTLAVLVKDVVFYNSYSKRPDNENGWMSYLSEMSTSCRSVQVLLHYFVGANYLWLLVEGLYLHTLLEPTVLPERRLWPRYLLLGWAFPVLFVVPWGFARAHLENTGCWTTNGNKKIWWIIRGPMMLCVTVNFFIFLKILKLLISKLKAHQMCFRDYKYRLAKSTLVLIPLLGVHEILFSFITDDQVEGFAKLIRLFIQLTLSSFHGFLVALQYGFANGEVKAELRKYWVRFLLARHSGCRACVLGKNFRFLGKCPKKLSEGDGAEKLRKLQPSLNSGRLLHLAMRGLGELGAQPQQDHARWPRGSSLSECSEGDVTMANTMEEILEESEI
Nature of the assay: cell-based or functional assay.

B1: Compound 20 (peptide)
peptide: H-H[Aib]EGTFTSELATILDEQAARDFIAWLIAYKITD-OH
SMILES: CC[C@H](C)[C@H](NC(=O)[C@H](CC(C)C)NC(=O)[C@H](Cc1c[nH]c2ccccc12)NC(=O)[C@H](C)NC(=O)[C@@H](NC(=O)[C@H](Cc1ccccc1)NC(=O)[C@H](CC(=O)O)NC(=O)[C@H](CCCNC(=N)N)NC(=O)[C@H](C)NC(=O)[C@H](C)NC(=O)[C@H](CCC(N)=O)NC(=O)[C@H](CCC(=O)O)NC(=O)[C@H](CC(=O)O)NC(=O)[C@H](CC(C)C)NC(=O)[C@@H](NC(=O)[C@@H](NC(=O)[C@H](C)NC(=O)[C@H](CC(C)C)NC(=O)[C@H](CCC(=O)O)NC(=O)[C@H](CO)NC(=O)[C@@H](NC(=O)[C@H](Cc1ccccc1)NC(=O)[C@@H](NC(=O)CNC(=O)[C@H](CCC(=O)O)NC(=O)C(C)(C)NC(=O)[C@@H](N)Cc1c[nH]cn1)[C@@H](C)O)[C@@H](C)O)[C@@H](C)O)[C@@H](C)CC)[C@@H](C)CC)C(=O)N[C@@H](C)C(=O)N[C@@H](Cc1ccc(O)cc1)C(=O)N[C@@H](CCCCN)C(=O)N[C@H](C(=O)N[C@H](C(=O)N[C@@H](CC(=O)O)C(=O)O)[C@@H](C)O)[C@@H](C)CC
As to B1, the “EC50 GLP-1 (nM); cAMP AlphaScreen, HEK293 cells expressing human GLP-1R” value (from here on “EC50 GLP-1 (nM); cAMP AlphaScreen”) in assay [1] turned out to be 0.012 nM. Also, in assay [2], the “EC50 GLP-2 (nM); cAMP AlphaScreen, HEK293 cells expressing human GLP-2R” value (from here on “EC50 GLP-2 (nM); cAMP AlphaScreen”) was found to be 0.26 nM.

B2: Compound 21 (peptide)
peptide: H-H[Aib]EGTFTSELATILDEQAARDFIAWLHQHKITD-OH
SMILES: CC[C@H](C)[C@H](NC(=O)[C@H](Cc1ccccc1)NC(=O)[C@H](CC(=O)O)NC(=O)[C@H](CCCNC(=N)N)NC(=O)[C@H](C)NC(=O)[C@H](C)NC(=O)[C@H](CCC(N)=O)NC(=O)[C@H](CCC(=O)O)NC(=O)[C@H](CC(=O)O)NC(=O)[C@H](CC(C)C)NC(=O)[C@@H](NC(=O)[C@@H](NC(=O)[C@H](C)NC(=O)[C@H](CC(C)C)NC(=O)[C@H](CCC(=O)O)NC(=O)[C@H](CO)NC(=O)[C@@H](NC(=O)[C@H](Cc1ccccc1)NC(=O)[C@@H](NC(=O)CNC(=O)[C@H](CCC(=O)O)NC(=O)C(C)(C)NC(=O)[C@@H](N)Cc1c[nH]cn1)[C@@H](C)O)[C@@H](C)O)[C@@H](C)O)[C@@H](C)CC)C(=O)N[C@@H](C)C(=O)N[C@@H](Cc1c[nH]c2ccccc12)C(=O)N[C@@H](CC(C)C)C(=O)N[C@@H](Cc1c[nH]cn1)C(=O)N[C@@H](CCC(N)=O)C(=O)N[C@@H](Cc1c[nH]cn1)C(=O)N[C@@H](CCCCN)C(=O)N[C@H](C(=O)N[C@H](C(=O)N[C@@H](CC(=O)O)C(=O)O)[C@@H](C)O)[C@@H](C)CC
Turning to B2, the “EC50 GLP-1 (nM); cAMP AlphaScreen” value in assay [1] came to 0.049 nM. The “EC50 GLP-2 (nM); cAMP AlphaScreen” value in assay [2] turned out to be 0.11 nM.

B3: Compound 22 (peptide)
peptide: H-H[Aib]EGSFTSELATILDEQAARDFIAWLHAHKITD-OH
SMILES: CC[C@H](C)[C@H](NC(=O)[C@H](Cc1ccccc1)NC(=O)[C@H](CC(=O)O)NC(=O)[C@H](CCCNC(=N)N)NC(=O)[C@H](C)NC(=O)[C@H](C)NC(=O)[C@H](CCC(N)=O)NC(=O)[C@H](CCC(=O)O)NC(=O)[C@H](CC(=O)O)NC(=O)[C@H](CC(C)C)NC(=O)[C@@H](NC(=O)[C@@H](NC(=O)[C@H](C)NC(=O)[C@H](CC(C)C)NC(=O)[C@H](CCC(=O)O)NC(=O)[C@H](CO)NC(=O)[C@@H](NC(=O)[C@H](Cc1ccccc1)NC(=O)[C@H](CO)NC(=O)CNC(=O)[C@H](CCC(=O)O)NC(=O)C(C)(C)NC(=O)[C@@H](N)Cc1c[nH]cn1)[C@@H](C)O)[C@@H](C)O)[C@@H](C)CC)C(=O)N[C@@H](C)C(=O)N[C@@H](Cc1c[nH]c2ccccc12)C(=O)N[C@@H](CC(C)C)C(=O)N[C@@H](Cc1c[nH]cn1)C(=O)N[C@@H](C)C(=O)N[C@@H](Cc1c[nH]cn1)C(=O)N[C@@H](CCCCN)C(=O)N[C@H](C(=O)N[C@H](C(=O)N[C@@H](CC(=O)O)C(=O)O)[C@@H](C)O)[C@@H](C)CC
For the molecule B3, the “EC50 GLP-1 (nM); cAMP AlphaScreen” value in assay [1] was 0.28 nM. In addition, in assay [2], the “EC50 GLP-2 (nM); cAMP AlphaScreen” value came to 0.042 nM.
